Reference: publication doi:10.1101/646075 (bioRxiv, 2019)
Like-named read-outs stand apart in the source and are kept apart here.

Assays:
[1] = molecular target: apo-transferrin (iron-unbound transferrin) (human) (UniProt P02787); experiment: SPR
human α-thrombin (human) = human α-thrombin (human) (UniProt P00734)
[2] = molecular target: apo-transferrin (iron-unbound transferrin) (human) (UniProt P02787)
[3] = molecular target: T1, apo-transferrin (iron-unbound transferrin) (human, UniProt P02787 20-698); experiment: SPR
[4] = molecular target: T1, apo-transferrin (iron-unbound …); experiment: SPR; remark: listed apart in the source
[5] = molecular target: T1, apo-transferrin (iron-unbound …)
[6] = molecular target: T1, apo-transferrin (iron-unbound …); experiment: SPR; remark: listed apart in the source

With FXII (natural protein) the Kd [1] was 40 nM, the koff [1] was 0.0012 s⁻¹ and the kon [1] was 30000 M⁻¹ s⁻¹.

For “apo-transferrin (iron-unbound transferrin) (from UniProt P02787 20-698) (natural protein)”, the enzymatic activity of thrombin on a chromogenic substrate, Tf at 0.2, 1 and 5 μM (human α-thrombin (human)) was 1.8 fold.

For “human α-thrombin (from UniProt P00734) (enzyme)”, the Kd [1] was 7.7 nM and the stoichiometry N (Tf per thrombin) [2] was 1.

B1: fibrinogen (complex)
chain 1: ADSGEGDFLAEGGGVRGPRVVERHQSACKDSDWPFCSDEDWNYKCPSGCRMKGLIDEVNQDFTNRINKLKNSLFEYQKNNKDSHSLTTNIMEILRGDFSSANNRDNTYNRVSEDLRSRIEVLKRKVIEKVQHIQLLQKNVRAQLVDMKRLEVDIDIKIRSCRGSCSRALAREVDLKDYEDQQKQLEQVIAKDLLPSRDRQHLPLIKMKPVPDLVPGNFKSQLQKVPPEWKALTDMPQMRMELERPGGNEITRGGSTSYGTGSETESPRNPSSAGSWNSGSSGPGSTGNRNPGSSGTGGTATWKPGSSGPGSTGSWNSGSSGTGSTGNQNPGSPRPGSTGTWNPGSSERGSAGHWTSESSVSGSTGQWHSESGSFRPDSPGSGNARPNNPDWGTFEEVSGNVSPGTRREYHTEKLVTSKGDKELRTGKEKVTSGSTTTTRRSCSKTVTKTVIGPDGHKEVTKEVVTSEDGSDCPEAMDLGTLSGIGTLDGFRHRHPDEAAFFDTASTGKTFPGFFSPMLGEFVSETESRGSESGIFTNTKESSSHHPGIAEFPSRGKSSSYSKQFTSSTSYNRGDSTFESKSYKMADEAGSEADHEGTHSTKRGHAKSRPVRGIHTSPLGKPSLSP
chain 2: QGVNDNEEGFFSARGHRPLDKKREEAPSLRPAPPPISGGGYRARPAKAAATQKKVERKAPDAGGCLHADPDLGVLCPTGCQLQEALLQQERPIRNSVDELNNNVEAVSQTSSSSFQYMYLLKDLWQKRQKQVKDNENVVNEYSSELEKHQLYIDETVNSNIPTNLRVLRSILENLRSKIQKLESDVSAQMEYCRTPCTVSCNIPVVSGKECEEIIRKGGETSEMYLIQPDSSVKPYRVYCDMNTENGGWTVIQNRQDGSVDFGRKWDPYKQGFGNVATNTDGKNYCGLPGEYWLGNDKISQLTRMGPTELLIEMEDWKGDKVKAHYGGFTVQNEANKYQISVNKYRGTAGNALMDGASQLMGENRTMTIHNGMFFSTYDRDNDGWLTSDPRKQCSKEDGGGWWYNRCHAANPNGRYYWGGQYTWDMAKHGTDDGVVWMNWKGSWYSMRKMSMKIRPFFPQQ
chain 3: YVATRDNCCILDERFGSYCPTTCGIADFLSTYQTKVDKDLQSLEDILHQVENKTSEVKQLIKAIQLTYNPDESSKPNMIDAATLKSRKMLEEIMKYEASILTHDSSIRYLQEIYNSNNQKIVNLKEKVAQLEAQCQEPCKDTVQIHDITGKDCQDIANKGAKQSGLYFIKPLKANQQFLVYCEIDGSGNGWTVFQKRLDGSVDFKKNWIQYKEGFGHLSPTGTTEFWLGNEKIHLISTQSAIPYALRVELEDWNGRTSTADYAMFKVGPEADKYRLTYAYFAGGDAGDAFDGFDFGDDPSDKFFTSHNGMQFSTWDNDNDKFEGNCAEQDGSGWWMNKCHAGHLNGVYYQGGTYSKASTPNGYDNGIIWATWKTRWYSMKKTTMKIIPFNRLTIGEGQQHHLGGAKQAGDV
B1 was tested, and the “stoichiometry N” value [3] was 4 apo-Tf per fibrinogen.

B2: human α-FXIIa (enzyme)
chain 1: IPPWEAPKEHKYKAEEHTVVLTVTGEPCHFPFQYHRQLYHKCTHKGRPGPQPWCATTPNFDQDQRWGYCLEPKKVKDHCSKHSPCQKGGTCVNMPSGPHCLCPQHLTGNHCQKEKCFEPQLLRFFHKNEIWYRTEQAAVARCQCKGPDAHCQRLASQACRTNPCLHGGRCLEVEGHRLCHCPVGYTGAFCDVDTKASCYDGRGLSYRGLARTTLSGAPCQPWASEATYRNVTAEQARNWGLGGHAFCRNPDNDIRPWCFVLNRDRLSWEYCDLAQCQTPTQAAPPTPVSPRLHVPLMPAQPAPPKPQPTTRTPPQSQTPGALPAKREQPPSLTRNGPLSCGQRLRKSLSSMTR
chain 2: VVGGLVALRGAHPYIAALYWGHSFCAGSLIAPCWVLTAAHCLQDRPAPEDLTVVLGQERRNHSCEPCQTLAVRSYRLHEAFSPVSYQHDLALLRLQEDADGSCALLSPYVQPVCLPSGAARPSETTLCQVAGWGHQFEGAEEYASFLQEAQVPFLSLERCSAPDVHGSSILPGMLCAGFLEGGTDACQGDSGGPLVCEDQAAERRLTLQGIISWGSGCGDRNKPGVYTDVAYYLAWIREHTVS
With B2 the Kd [4] was 13.9 nM, the koff [4] was 0.0025 s⁻¹ and the kon [4] was 180000 M⁻¹ s⁻¹. The “stoichiometry N” value [5] was 1 Tf per FXIIa.

In the case of RIGKHSRTRYERNIEK [TH16], the Kd [6] is reported as 97 nM, the koff [6] is reported as 0.0003 s⁻¹ and the kon [6] is reported as 3100 M⁻¹ s⁻¹.

For RRNHSCEPCQTLAVRSYR [FX18], the Kd [6] was 143 nM, the koff [6] was 0.0004 s⁻¹ and the kon [6] was 2800 M⁻¹ s⁻¹.
